Assay results as given in paper PMC7768682 (Proceedings of the National Academy of Sciences of the …, 2020).
Ends that are not written are not given here.

Legend:
Assay in all cases: BLI
talin head t1-405 = talin head t1-405 (human, UniProt Q9Y490 1-405)
talin head t1-435 = talin head t1-435 (human, UniProt Q9Y490 1-435)
talin head t1-400 = talin head t1-400 (human, UniProt Q9Y490 1-400)

Measured: binding result

Chain of talin head t1-435 (Q9Y490 1-435): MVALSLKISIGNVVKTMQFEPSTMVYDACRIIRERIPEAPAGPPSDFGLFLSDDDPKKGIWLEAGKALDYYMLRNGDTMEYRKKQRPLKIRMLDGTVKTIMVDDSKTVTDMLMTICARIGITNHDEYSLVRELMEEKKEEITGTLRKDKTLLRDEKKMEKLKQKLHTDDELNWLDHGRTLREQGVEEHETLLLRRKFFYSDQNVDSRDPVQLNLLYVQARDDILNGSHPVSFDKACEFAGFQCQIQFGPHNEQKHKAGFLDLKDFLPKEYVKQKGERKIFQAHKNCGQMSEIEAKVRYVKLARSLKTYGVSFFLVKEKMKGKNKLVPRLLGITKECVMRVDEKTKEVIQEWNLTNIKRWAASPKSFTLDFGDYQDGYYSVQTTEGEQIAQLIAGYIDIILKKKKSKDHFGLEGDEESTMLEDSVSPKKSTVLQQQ
Chain of talin head t1-405 (Q9Y490 1-405): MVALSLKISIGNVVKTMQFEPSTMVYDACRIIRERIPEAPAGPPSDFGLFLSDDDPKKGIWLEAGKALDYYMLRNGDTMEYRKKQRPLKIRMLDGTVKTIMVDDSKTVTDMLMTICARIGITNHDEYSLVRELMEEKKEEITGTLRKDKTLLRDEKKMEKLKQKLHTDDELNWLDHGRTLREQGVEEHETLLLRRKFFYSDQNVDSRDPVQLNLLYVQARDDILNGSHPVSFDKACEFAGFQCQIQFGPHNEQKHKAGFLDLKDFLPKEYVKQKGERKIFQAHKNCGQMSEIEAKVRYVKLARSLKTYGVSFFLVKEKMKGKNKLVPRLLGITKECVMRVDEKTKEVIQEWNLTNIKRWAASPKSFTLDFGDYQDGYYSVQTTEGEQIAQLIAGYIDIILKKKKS
Chain of talin head t1-400 (Q9Y490 1-400): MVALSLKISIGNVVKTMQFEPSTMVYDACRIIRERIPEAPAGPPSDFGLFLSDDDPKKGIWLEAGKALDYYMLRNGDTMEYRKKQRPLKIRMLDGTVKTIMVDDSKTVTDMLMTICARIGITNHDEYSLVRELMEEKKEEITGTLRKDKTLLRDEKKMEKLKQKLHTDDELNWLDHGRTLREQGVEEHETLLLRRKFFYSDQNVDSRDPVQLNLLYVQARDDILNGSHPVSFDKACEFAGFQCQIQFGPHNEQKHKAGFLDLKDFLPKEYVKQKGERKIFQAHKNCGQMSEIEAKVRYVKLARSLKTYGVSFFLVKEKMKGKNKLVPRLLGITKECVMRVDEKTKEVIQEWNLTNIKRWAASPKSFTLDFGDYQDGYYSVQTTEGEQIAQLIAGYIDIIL

{GST}-GSKLLITIHDRKEFAKFEEERARAKWDTANNPLYKEATSTFTNITYRGT (domain or fragment) [GST-integrin β3 cytoplasmic tail fusion, wild type (WT-β3)]
binds: all assays above
